# Data from paper PMC10703783, “Programmed cell death 11 modulates but not entirely relies on p53-HDM2 loop to facilitate G2/M transition in colorectal cancer cells” (Oncogenesis, 2023).
# B1: His-S-tagged PDCD11 (1033-1431) (domain or fragment, human, UniProt Q14690 1033-1431, looked up)
# chain: LSIGDMVTGTVKSIKPTHVVVTLEDGIIGCIHASHILDDVPEGTSPTTKLKVGKTVTARVIGGRDMKTFKYLPISHPRFVRTIPELSVRPSELEDGHTALNTHSVSPMEKIKQYQAGQTVTCFLKKYNVVKKWLEVEIAPDIRGRIPLLLTSLSFKVLKHPDKKFRVGQALRATVVGPDSSKTLLCLSLTGPHKLEEGEVAMGRVVKVTPNEGLTVSFPFGKIGTVSIFHMSDSYSETPLEDFVPQKVVRCYILSTADNVLTLSLRSSRTNPETKSKVEDPEINSIQDIKEGQLLRGYVGSIQPHGVFFRLGPSVVGLARYSHVSQHSPSKKALYNKHLPEGKLLTARVLRLNHQKNLVELSFLPGDTGKPDVLSASLEGQLTKQEERKTEAEERDQKG
# notes: source: expressed and purified
# What was measured:
# Test in all cases: pull-down; GST pulldown in vitro; GST-tagged p53 or HDM2 (full length or truncations) as bait, His-S-tagged PDCD11 (full length or truncations) as prey
# Conditions in all cases: both partners purified
# [1] = biological target: T1, GST-tagged full-length HDM2 (UniProt Q00987-11 1-497)
# T1 construct: HDM2, full length; also called HDM2-FL; GST-HDM2; source: expressed and purified
# [2] = biological target: B1
# [3] = biological target: T2, His-S-tagged full-length PDCD11 (programmed cell death 11) (human, UniProt Q14690 1-1871)
# T2 construct: programmed cell death 11 (PDCD11), human, Gene ID 22984, 1871 amino acids, full length; also called PDCD11-FL; ALG-4; source: expressed and purified
# T2 sequence (Q14690 whole entry): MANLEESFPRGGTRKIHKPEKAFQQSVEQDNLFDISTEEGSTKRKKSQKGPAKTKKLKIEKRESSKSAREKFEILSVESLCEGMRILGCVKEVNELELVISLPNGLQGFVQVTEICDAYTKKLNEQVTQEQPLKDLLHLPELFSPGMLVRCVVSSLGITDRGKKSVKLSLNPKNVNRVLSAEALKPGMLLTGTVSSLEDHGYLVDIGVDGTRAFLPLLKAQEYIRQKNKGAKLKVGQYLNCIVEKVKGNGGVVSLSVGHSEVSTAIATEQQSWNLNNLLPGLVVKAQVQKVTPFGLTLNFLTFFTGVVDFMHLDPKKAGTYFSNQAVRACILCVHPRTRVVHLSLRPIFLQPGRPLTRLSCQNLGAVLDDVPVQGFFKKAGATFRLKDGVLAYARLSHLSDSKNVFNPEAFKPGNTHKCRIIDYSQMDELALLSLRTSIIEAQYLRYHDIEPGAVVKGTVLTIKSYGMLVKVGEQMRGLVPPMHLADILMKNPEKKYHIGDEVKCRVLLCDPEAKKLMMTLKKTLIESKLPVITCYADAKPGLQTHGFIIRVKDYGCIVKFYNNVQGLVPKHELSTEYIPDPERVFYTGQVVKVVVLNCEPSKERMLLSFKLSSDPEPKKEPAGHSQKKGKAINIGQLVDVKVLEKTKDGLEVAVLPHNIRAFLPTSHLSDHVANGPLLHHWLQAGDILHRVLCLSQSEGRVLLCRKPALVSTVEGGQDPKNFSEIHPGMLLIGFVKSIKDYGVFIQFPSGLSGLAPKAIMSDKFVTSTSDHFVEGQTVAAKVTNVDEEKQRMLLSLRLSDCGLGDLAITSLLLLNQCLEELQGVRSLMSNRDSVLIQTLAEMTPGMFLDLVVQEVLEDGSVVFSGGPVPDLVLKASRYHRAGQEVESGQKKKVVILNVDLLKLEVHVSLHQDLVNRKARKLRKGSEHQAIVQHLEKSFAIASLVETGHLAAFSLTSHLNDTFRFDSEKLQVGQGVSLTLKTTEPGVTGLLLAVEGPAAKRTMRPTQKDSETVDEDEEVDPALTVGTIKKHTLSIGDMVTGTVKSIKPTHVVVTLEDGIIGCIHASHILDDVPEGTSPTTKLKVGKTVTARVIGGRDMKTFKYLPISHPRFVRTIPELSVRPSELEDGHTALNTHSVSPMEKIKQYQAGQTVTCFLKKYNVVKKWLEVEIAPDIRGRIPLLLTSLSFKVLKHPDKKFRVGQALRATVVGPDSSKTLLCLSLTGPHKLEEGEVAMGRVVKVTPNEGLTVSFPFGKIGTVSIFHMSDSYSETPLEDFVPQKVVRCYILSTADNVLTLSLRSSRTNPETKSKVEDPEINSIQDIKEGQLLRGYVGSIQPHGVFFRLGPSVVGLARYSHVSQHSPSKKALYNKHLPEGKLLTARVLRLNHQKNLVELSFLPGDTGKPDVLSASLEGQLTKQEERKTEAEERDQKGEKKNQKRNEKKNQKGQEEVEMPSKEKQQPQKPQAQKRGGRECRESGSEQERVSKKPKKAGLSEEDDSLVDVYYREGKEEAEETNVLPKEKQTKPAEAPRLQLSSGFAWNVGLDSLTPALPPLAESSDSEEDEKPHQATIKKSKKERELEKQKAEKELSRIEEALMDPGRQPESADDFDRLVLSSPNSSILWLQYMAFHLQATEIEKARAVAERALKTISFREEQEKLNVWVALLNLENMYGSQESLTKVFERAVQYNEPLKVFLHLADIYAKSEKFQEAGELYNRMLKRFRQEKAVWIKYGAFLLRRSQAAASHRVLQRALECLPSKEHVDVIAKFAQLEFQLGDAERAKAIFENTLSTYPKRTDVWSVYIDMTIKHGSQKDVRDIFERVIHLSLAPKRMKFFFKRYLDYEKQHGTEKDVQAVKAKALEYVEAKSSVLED
Binder,binding result [1],binding result [2],binding result [3]
B1,binds,–,–
"GST-tagged HDM2 (349-497) (domain or fragment, UniProt Q00987-11 349-497, looked up, source: expressed and purified) EKAKLENSTQAEEGFDVPDCKKTIVNDSRESCVEENDDKITQASQSQESEDYSQPSTSSSIIYSSQEDVKEFEREETQDKEESVESSLPLNAIEPCVICQGRPKNGCIVHGKTGHLMACFTCAKKLKKRNKPCPVCRQPIQMIVLTYFP",–,binds,binds
